± gives the standard deviation of the averaged measurements.
How the values were obtained:
Saccharomyces cerevisiae [1] = test: protein stability index of tFT-peptide fusion (C-terminal peptide) (PSI (0-1 scale)); higher = more stable (slower turnover); settings: genetic background: wild type; temperature: 30 C
Saccharomyces cerevisiae [2] = test: as above
Description: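 MPS profiling in S. cerevisiae of the tFT-X12 degron library: putative degron peptides plus stable controls, 12 aa, fused to the C-terminus of a sfGFP-mCherry timer. Cells are FACS-sorted into 8 mCherry/sfGFP bins and deep-sequenced. PSI runs from 0 (unstable) to 1 (stable). Backgrounds are wild type, das1Δ and doa10Δ at 30 °C, and wild type, das1Δ, cdc34-1 and cdc53-1 at 37 °C; 2-3 technical replicates each.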

[3] = genetic background: cdc34-1, temperature: 37 C
[4] = genetic background: cdc53-1, temperature: 37 C
[5] = genetic background: das1 deletion, temperature: 30 C
[6] = genetic background: das1 deletion, temperature: 37 C
[7] = genetic background: doa10 deletion, temperature: 30 C
[8] = genetic background: wild type, temperature: 30 C
[9] = genetic background: wild type, temperature: 37 C
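Note: PSI is a weighted mean of sequencing reads over stability bins, variants kept only with over 10 reads, mCherry proximal and sfGFP distal, peptide attached via GGGS linker.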

Row | Sequence | protein stability index (Saccharomyces cerevisiae [1]) | protein stability index (Saccharomyces cerevisiae [2]; [3]) | protein stability index (Saccharomyces cerevisiae [2]; [4]) | protein stability index (Saccharomyces cerevisiae [2]; [5]) | protein stability index (Saccharomyces cerevisiae [2]; [6]) | protein stability index (Saccharomyces cerevisiae [2]; [7]) | protein stability index (Saccharomyces cerevisiae [2]; [8]) | protein stability index (Saccharomyces cerevisiae [2]; [9])
1 | FFCLVEVFVGVF | 0.2798 ± 0.0012 | 0.0707 ± 0.051 | 0.108 ± 0.023 | 0.115 ± 0.044 | 0.177 ± 0.0027 | 0.089 ± 0.018 | 0.0928 ± 0.033 | 0.107 ± 0.014
2 | FFCVLGLSFFCL | 0.542 ± 0.17 | 0.609 ± 0.065 | 0.618 ± 0.016 | 0.568 ± 0.021 | 0.58942 ± 0.00014 | 0.554 ± 0.039 | 0.549 ± 0.021 | 0.566 ± 0.016
3 | FFLFLFFFLRGS | 0.467 ± 0.023 | 0.4853 ± 0.0033 | 0.53967 ± 0.00022 | 0.405 ± 0.025 | 0.533 ± 0.035 | 0.419 ± 0.03 | 0.402 ± 0.035 | 0.511 ± 0.021
4 | FFRVCNALLLVC | 0.0759 ± 0.035 | 0.0637 ± 0.058 | 0.0334 ± 0.0086 | 0.148 ± 0.026 | 0.152 ± 0.025 | 0.0531 ± 0.0033 | 0.0394 ± 0.01 | 0.0662 ± 0.015
5 | FFSFFLSFRLWF | 0.449 ± 0.11 | 0.365 ± 0.061 | 0.298 ± 0.024 | 0.433 ± 0.038 | 0.456 ± 0.012 | 0.596 ± 0.04 | 0.429 ± 0.038 | 0.434 ± 0.058
6 | FFTLSTVKLLRV | 0.508 ± 0.044 | 0.497 ± 0.025 | 0.521 ± 0.02 | 0.427 ± 0.022 | 0.552 ± 0.0087 | 0.385 ± 0.0046 | 0.412 ± 0.027 | 0.5379 ± 0.0018
7 | FFVFVVFFCFGL | 0.383 ± 0.047 | 0.321 ± 0.008 | 0.438 ± 0.035 | 0.303 ± 0.023 | 0.444 ± 0.0091 | 0.2809 ± 0.0014 | 0.303 ± 0.0093 | 0.41 ± 0.014
8 | FGLLLVLASALG | 0.3828 ± 0.0021 | 0.356 ± 0.034 | 0.438 ± 0.026 | 0.318 ± 0.022 | 0.465 ± 0.018 | 0.284 ± 0.024 | 0.307 ± 0.019 | 0.4411 ± 0.0012
9 | FGLMCFIFYVLV | 0.307 ± 0.057 | 0.2 ± 0.018 | 0.331 ± 0.03 | 0.236 ± 0.021 | 0.3756 ± 0.0017 | 0.223 ± 0.016 | 0.225 ± 0.018 | 0.337 ± 0.0078
10 | FHFLFLFSLVSV | 0.416 ± 0.017 | 0.294 ± 0.074 | 0.316 ± 0.03 | 0.269 ± 0.038 | 0.412 ± 0.017 | 0.293 ± 0.0034 | 0.279 ± 0.012 | 0.37513 ± 0.00036
11 | FILLHLLGTIRS | 0.438 ± 0.016 | 0.433 ± 0.02 | 0.487 ± 0.0072 | 0.372 ± 0.031 | 0.502 ± 0.023 | 0.337 ± 0.016 | 0.352 ± 0.026 | 0.4948 ± 0.0018
12 | FIMHRIFMALVI | 0.341 ± 0.14 | 0.386 ± 0.055 | 0.415 ± 0.03 | 0.381 ± 0.042 | 0.4786 ± 0.0006 | 0.29 ± 0.017 | 0.253 ± 0.025 | 0.359 ± 0.0092
13 | FLFCMIFIFRCF | 0.276 ± 0.1 | 0.216 ± 0.011 | 0.196 ± 0.026 | 0.233 ± 0.031 | 0.339 ± 0.025 | 0.203 ± 0.025 | 0.165 ± 0.015 | 0.252 ± 0.022
14 | FLFLFIFYFFCC | 0.389 ± 0.083 | 0.269 ± 0.046 | 0.367 ± 0.0077 | 0.327 ± 0.024 | 0.476 ± 0.02 | 0.315 ± 0.0036 | 0.314 ± 0.032 | 0.401 ± 0.06
15 | FLFLSPLALHVS | 0.304 ± 0.01 | 0.444 ± 0.03 | 0.494 ± 0.014 | 0.412 ± 0.022 | 0.513 ± 0.014 | 0.177 ± 0.0097 | 0.212 ± 0.024 | 0.256 ± 0.011
16 | FLIVLLVIFFGF | 0.324 ± 0.006 | 0.275 ± 0.0072 | 0.387 ± 0.019 | 0.276 ± 0.023 | 0.367 ± 0.023 | 0.275 ± 0.018 | 0.269 ± 0.04 | 0.357 ± 0.018
17 | FLLASSRRICCS | 0.391 ± 0.0082 | 0.458 ± 0.0088 | 0.486 ± 0.029 | 0.365 ± 0.025 | 0.5347 ± 0.001 | 0.249 ± 0.015 | 0.269 ± 0.028 | 0.47 ± 0.013
18 | FLLCGVFFFFFV | 0.4286 ± 0.0014 | 0.323 ± 0.0043 | 0.405 ± 0.046 | 0.288 ± 0.025 | 0.3092 ± 0.00041 | 0.344 ± 0.012 | 0.245 ± 0.032 | 0.319 ± 0.013
19 | FLLGWFLFFVCS | 0.406 ± 0.043 | 0.401 ± 0.015 | 0.422 ± 0.019 | 0.32 ± 0.027 | 0.4361 ± 0.0024 | 0.289 ± 0.012 | 0.283 ± 0.027 | 0.393 ± 0.013
